B4: CC2D1A(346-455) (domain or fragment, human, UniProt Q6P1N0 346-455, looked up)
chain: RTLLEALEQRMERYQVAAAQAKSKGDQRKARMHERIVKQYQDAIRAHKAGRAVDVAELPVPPGFPPIQGLEATKPTQQSLVGVLETAMKLANQDEGPEDEEDEVPKKQNS
B6: MBP-CHMP4B(7-110) (domain or fragment, UniProt Q9H444 7-110, looked up)
chain: LFGAGGGKAGKGGPTPQEAIQRLRDTEEMLSKKQEFLEKKIEQELTAAKKHGTKNKRAALQALKRKKRYEKQLAQIDGTLSTIEFQREALENANTNTEVLKNMG

The target of assay [1] is B6. The experiment in a line: ITC. A general note: In ITC the heat of successive injections is recorded.
Assay [2] has as its target B4. Put plainly: SPR.
Assay [3] has as its target T1, CHMP4B(23-97), MBP removed (UniProt Q9H444).
T1 sequence (Q9H444 23-97, species assumed, looked up): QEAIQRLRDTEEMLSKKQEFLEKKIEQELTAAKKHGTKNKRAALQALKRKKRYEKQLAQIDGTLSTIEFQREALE
The experiment in a line: SEC-MALS. Background: Size exclusion chromatography separates by hydrodynamic size, large species first.

In assay [4] the target is T2, MBP-CHMP4B(23-97) (UniProt Q9H444 23-97).
T2 sequence (looked up): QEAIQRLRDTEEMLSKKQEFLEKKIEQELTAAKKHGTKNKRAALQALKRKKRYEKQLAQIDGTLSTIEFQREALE
The experiment in a line: ITC.

The target of assay [5] is T3, CC2D1B(1-601) (UniProt Q5T0F9 1-601).
T3 sequence (looked up): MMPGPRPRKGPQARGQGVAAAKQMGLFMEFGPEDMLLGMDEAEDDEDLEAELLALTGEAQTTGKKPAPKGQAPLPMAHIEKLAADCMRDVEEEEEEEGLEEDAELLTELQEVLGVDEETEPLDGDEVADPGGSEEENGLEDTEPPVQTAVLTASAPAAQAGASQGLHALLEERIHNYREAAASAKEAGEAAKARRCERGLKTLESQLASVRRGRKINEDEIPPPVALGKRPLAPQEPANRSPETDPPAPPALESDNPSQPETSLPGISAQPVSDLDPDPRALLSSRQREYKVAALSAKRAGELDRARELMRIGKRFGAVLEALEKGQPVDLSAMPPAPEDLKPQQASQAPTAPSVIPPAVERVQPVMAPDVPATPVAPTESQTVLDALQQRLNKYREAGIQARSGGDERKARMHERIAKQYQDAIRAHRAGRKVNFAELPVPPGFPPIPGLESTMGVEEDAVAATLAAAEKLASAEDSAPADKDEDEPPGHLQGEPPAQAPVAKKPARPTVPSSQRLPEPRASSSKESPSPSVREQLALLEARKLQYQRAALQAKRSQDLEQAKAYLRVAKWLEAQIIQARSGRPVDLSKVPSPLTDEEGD
The experiment in a line: SEC-MALS.

In assay [6] the target is T3, CC2D1B(1-601). Put plainly: ITC.

B1: CC2D1A(346-494) (domain or fragment, human, UniProt Q6P1N0 346-494, looked up)
chain: RTLLEALEQRMERYQVAAAQAKSKGDQRKARMHERIVKQYQDAIRAHKAGRAVDVAELPVPPGFPPIQGLEATKPTQQSLVGVLETAMKLANQDEGPEDEEDEVPKKQNSPVAPTAQPKAPPSRTPQSGSAPTAKAPPKATSTRAQQQL
Regarding B1, in assay [1], the dH is -8160 kcal/mol and the “stoichiometry N” value was determined as 1.03.

B2: MBP-CHMP4B(7-105) (domain or fragment, UniProt Q9H444 7-105, looked up)
chain: LFGAGGGKAGKGGPTPQEAIQRLRDTEEMLSKKQEFLEKKIEQELTAAKKHGTKNKRAALQALKRKKRYEKQLAQIDGTLSTIEFQREALENANTNTEV
Turning to B2, in assay [2], the koff worked out at 0.0079 s⁻¹ and the kon was 25000 M⁻¹ s⁻¹.

B3: MBP-CHMP4B(7-105)_(mut1) (domain or fragment, UniProt Q9H444 7-105, looked up)
chain: LFGAGGGKAGKGGPTPQEAIQALARTREMLSKKQEFLEKKIEQELTAAKKHGTKNKRAALQALKRKKRYEKQLAQIDGTLSTIEFQREALENANTNTEV
In assay [2], B3 gave a koff of 0.0017 s⁻¹ and a kon of 1200 M⁻¹ s⁻¹.

Take B4: the stoichiometry N was found to be 1 in assay [3], 0.9 in assay [1] and 0.9 in assay [4]. Moreover, the dH in assay [1] was -8190 kcal/mol; in assay [4], -14600 kcal/mol.

B5: CHMP4B(7-110), MBP removed (domain or fragment, UniProt Q9H444 7-110, looked up)
chain: LFGAGGGKAGKGGPTPQEAIQRLRDTEEMLSKKQEFLEKKIEQELTAAKKHGTKNKRAALQALKRKKRYEKQLAQIDGTLSTIEFQREALENANTNTEVLKNMG
Take B5: the “stoichiometry N” value in assay [5] came out at 1.

Take B6: in assay [6], the dH is -13700 kcal/mol and the “stoichiometry N” value worked out at 1.02.

B7: CC2D1A(309-494) (domain or fragment, human, UniProt Q6P1N0 309-494, looked up)
chain: SCLPPPPDQLPPDPPSPPSQPPTPATAPSTTEVPPPPRTLLEALEQRMERYQVAAAQAKSKGDQRKARMHERIVKQYQDAIRAHKAGRAVDVAELPVPPGFPPIQGLEATKPTQQSLVGVLETAMKLANQDEGPEDEEDEVPKKQNSPVAPTAQPKAPPSRTPQSGSAPTAKAPPKATSTRAQQQL
As to B7, in assay [1], the dH is -7380 kcal/mol and the “stoichiometry N” value was 0.84.

In general, stoichiometry N refers to a count of units in the complex or per binding partner. The term koff denotes a measure of how fast the partners let go of each other. A lower koff goes with slow dissociation. By kon is commonly meant a measure of how fast the partners come together. High values mean faster complex formation, low ones slower complex formation.

These data come from article PMC3433253 (Journal of molecular biology, 2012).
